Test results taken from paper PMC1626108.

Columns and labels:
[1] = target: T1, Recombinant Cox11, purified (mouse) (UniProt Q6P8I6)
T1 sequence (Q6P8I6 whole entry, looked up): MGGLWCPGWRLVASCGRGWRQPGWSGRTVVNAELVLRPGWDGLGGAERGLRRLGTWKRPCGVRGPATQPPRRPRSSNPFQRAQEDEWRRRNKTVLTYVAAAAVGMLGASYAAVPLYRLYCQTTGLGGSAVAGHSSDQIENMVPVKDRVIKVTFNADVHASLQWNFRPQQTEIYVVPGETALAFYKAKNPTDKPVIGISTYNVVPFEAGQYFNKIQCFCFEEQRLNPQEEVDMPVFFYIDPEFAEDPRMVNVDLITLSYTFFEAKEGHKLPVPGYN

Hexokinase type I (HKI) = Hexokinase type I (HKI) (UniProt P17710)
UniProt P17710, sequence (P17710 other isoform, or with tags, fused parts or gaps): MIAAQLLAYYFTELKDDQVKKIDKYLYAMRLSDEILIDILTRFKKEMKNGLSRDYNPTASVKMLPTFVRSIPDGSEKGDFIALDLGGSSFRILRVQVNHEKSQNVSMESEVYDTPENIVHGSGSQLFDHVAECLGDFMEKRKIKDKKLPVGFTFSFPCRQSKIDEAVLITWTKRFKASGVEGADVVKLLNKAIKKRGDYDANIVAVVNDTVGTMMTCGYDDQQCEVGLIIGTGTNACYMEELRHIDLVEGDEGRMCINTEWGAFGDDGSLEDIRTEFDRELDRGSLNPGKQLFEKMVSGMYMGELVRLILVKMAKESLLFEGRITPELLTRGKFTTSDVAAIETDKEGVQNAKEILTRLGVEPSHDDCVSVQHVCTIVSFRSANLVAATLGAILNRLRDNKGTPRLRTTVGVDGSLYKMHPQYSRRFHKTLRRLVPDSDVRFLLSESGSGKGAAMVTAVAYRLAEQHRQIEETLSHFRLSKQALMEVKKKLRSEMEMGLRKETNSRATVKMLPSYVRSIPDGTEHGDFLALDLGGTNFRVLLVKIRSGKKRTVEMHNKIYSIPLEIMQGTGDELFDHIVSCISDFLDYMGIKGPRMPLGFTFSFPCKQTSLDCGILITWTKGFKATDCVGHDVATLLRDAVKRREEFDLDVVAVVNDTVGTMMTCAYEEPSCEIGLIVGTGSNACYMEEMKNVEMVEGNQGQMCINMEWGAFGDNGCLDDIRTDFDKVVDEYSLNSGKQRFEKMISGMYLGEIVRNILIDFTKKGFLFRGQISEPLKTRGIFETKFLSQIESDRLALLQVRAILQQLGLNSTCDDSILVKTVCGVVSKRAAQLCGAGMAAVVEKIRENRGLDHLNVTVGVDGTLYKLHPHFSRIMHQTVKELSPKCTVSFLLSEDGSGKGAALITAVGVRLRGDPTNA

Row | reversal by increasing LD of the inhibition of HKI activity by 7.5 nM Cox11 at saturating glucose; half-maximal effect [1] | HKI enzymatic activity (initial rates versus glucose, 0.24 ug HKI) with 0.25, 7.5 and 15 nM Cox11; concentration of Cox11 at which no activity was recorded (Hexokinase type I (HKI)) | Substance
1 | 0.05 nM |  | GST-LD, leucine-rich domain of RanBP2 fused to glutathione S-transferase (from UniProt P49792 62-711) (domain or fragment)
2 |  | 15 nM | Recombinant Cox11, purified (from UniProt Q6P8I6 75-275) (natural protein)
